Results published in paper PMC7870846, “Incorporation of sensing modalities into de novo designed fluorescence-activating proteins” (Nature Communications, 2021).

Tests used:
[1] = Ca2+-responsive mFAP Ca2+ titrations; format: binding; settings: Ca2+ titration with excess DFHBI
Outline: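 Purified protein at 500 nM with 5.00 μM DFHBI titrated over eleven 10-fold CaCl2 dilutions plus a no-Ca2+ condition in high-salt Tev cleavage buffer; endpoint fluorescence at ex 484/em 508 nm, protein-free background subtracted. Triplicate means fit to a single-site isotherm, Hill coefficient 1, for Kd.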

[2] = Fluorescence intensity assays of mFAP variants; format: biochemical; settings: neutral pH, DFHBI
Experimental: To measure fluorescence intensities of the phenolate form of chromophores, fluorescence was measured on a Synergy Neo2 hybrid multi-mode reader (BioTek) in flat bottom, black polystyrene, non-binding surface 96-well microplates (Corning 3650). Fluorescence intensity was measured in triplicate by exciting at λex = 484 nm and measuring fluorescence emission at λem = 505 nm (or λem = 511 nm for clones harboring the W27 mutation) (Supplementary Fig. 1g, h). The W27 mutation redshifts the peak emission wavelength from λem = ~505 nm to λem = ~511 nm, presumably due to the W27 indole ring donating a hydrogen bond to the imidazolinone moiety of the deprotonated state of DFHBI, which stabilizes the chromophore conjugated π–electron system in the excited state causing the redshift in emission. Fifteen microliters of small-scale purified protein[49] was combined with 185 μL of Na2HPO4-citrate (pH 7.36) buffer supplemented with 150 mM NaCl and 108 nM DFHBI for a final concentration of 100 nM DFHBI. In measuring the excitation spectra from λem = 525 nm of each clone in triplicate (Supplementary Fig. 1i), 30.0 μL of large-scale purified protein[49] was combined with 170 μL of 25.0 mM Tris (pH 8.00) supplemented with 100 mM NaCl and 914 nM DFHBI for a final concentration of 7.77 μM protein and 777 nM DFHBI. In measuring the fluorescence intensity at λex = 484 nm and λem = 509 nm of each clone in triplicate (Supplementary Fig. 1j), 30.0 μL of large-scale purified protein[49] was combined with 170 μL of 25.0 mM Tris (pH 8.00) supplemented with 100 mM NaCl and 653 nM DFHBI for a final concentration of 5.55 μM protein and 555 nM DFHBI. In measuring fluorescence intensity at λex = 468 nm and λem = 530 nm of each clone in technical triplicate (Supplementary Fig. 1k), 24.0 μL of 35.4 µM large-scale purified protein[49] was combined with 1.00 μL of 1.25 µM DFHBI or 1.00 μL of 1.25 µM DFHBI-1T (Lucerna) (from […] chromophore stock solutions dissolved in 0.5% DMSO and 99.5% high-salt Tev cleavage buffer [25.0 mM Tris, 100 mM NaCl, pH 8.00]) for final concentrations of 34.0 μM protein and 50.0 nM chromophore. The mFAP9–DFHBI complex had ~1.1-fold the fluorescence intensity of the mFAP10–DFHBI complex, and the mFAP9–DFHBI-1T complex had ~0.75-fold the fluorescence intensity of the mFAP10–DFHBI-1T complex (Supplementary Fig. 1k). In collecting fluorescence emission spectra by exciting fluorescence at λex = 484 nm and collecting fluorescence emission at λem = 495–650 nm (Supplementary Fig. 6b), and in measuring fluorescence endpoints in techincal triplicate at unique peak excitation and emission wavelengths (Supplementary Fig. 6c), 195 μL of large-scale purified protein[49] was combined with 5.00 μL of 25 mM Tris (pH 8.00) supplemented with 100 mM NaCl and 40.0 μM DFHBI for a final concentration of 10.0 μM protein and 1.00 μM DFHBI.
In measuring fluorescence intensity of small-scale purified proteins[49] (Supplementary Table 1), wells were excited at λex = 488 nm for DFHBI and DFHBI-1T and λex = 505 nm for DFHO, and fluorescence emission measured at λem = 510 nm for DFHBI and DFHBI-1T and λem = 545 nm for DFHO. […]

B1: mFAP2b: mFAP2.5 with V67I, "b" for bright (protein)
chain: SRAAQLLPGTWQVTMTNEDGQTSQGQWHFQPRSPYTMDIVAQGTISDGRPIVGYGKATVKTPDTLDIDITYPSLGNIKAQGQITMDSPTQFKWDATTKGENDFHGRLTGTLQRQE
Ca2+-responsiveness / allostery between DFHBI and Ca2+ binding [1]: lack of Ca^2+-responsiveness | brighter than mFAP2.4 [2]: ~ 1.3 fold | brighter than mFAP2.5 [2]: ~ 1.2 fold
